The record followed here is doi:10.1101/2024.12.17.628619 (bioRxiv, 2024).

This assay concerns the target His6-DDB1 (human, UniProt Q16531 1-1140). Kind of assay: SEC + other: negative stain EM.

Sequence of His6-DDB1 (Q16531 whole entry): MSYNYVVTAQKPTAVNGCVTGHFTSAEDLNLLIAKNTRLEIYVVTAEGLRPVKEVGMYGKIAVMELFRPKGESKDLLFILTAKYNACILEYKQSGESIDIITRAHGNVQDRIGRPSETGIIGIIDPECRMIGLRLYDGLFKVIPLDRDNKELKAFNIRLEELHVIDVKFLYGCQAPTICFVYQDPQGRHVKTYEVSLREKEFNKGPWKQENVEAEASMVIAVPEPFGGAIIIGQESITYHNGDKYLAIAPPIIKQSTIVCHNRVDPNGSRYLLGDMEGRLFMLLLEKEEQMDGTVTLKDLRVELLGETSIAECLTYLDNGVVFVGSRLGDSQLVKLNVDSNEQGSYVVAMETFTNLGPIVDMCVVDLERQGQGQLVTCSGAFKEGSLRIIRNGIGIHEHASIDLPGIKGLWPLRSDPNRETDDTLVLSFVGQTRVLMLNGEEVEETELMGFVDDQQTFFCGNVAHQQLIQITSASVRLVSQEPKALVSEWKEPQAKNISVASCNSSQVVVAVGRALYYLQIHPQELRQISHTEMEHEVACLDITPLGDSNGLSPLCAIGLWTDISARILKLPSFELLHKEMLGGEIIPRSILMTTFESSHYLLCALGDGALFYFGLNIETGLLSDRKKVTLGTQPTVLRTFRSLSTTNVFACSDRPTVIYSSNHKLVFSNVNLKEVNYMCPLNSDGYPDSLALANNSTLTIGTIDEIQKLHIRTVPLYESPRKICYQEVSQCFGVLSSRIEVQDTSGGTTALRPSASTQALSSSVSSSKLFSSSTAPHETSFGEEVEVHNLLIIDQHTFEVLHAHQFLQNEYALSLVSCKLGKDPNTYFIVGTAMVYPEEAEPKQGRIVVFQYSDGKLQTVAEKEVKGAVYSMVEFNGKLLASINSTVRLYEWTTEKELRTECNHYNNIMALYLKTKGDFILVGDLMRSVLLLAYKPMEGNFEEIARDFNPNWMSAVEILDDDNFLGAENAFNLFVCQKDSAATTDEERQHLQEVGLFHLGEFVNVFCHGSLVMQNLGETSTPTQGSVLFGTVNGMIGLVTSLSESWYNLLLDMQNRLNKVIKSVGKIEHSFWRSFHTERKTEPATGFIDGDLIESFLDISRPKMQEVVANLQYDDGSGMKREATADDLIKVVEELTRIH

B1: MBP-AMBRA1^WD40 (residues M1-N204 directly fused to S853-G1044), wild type (domain or fragment, human, UniProt Q9C0C7 1-204, looked up)
chain: MKVVPEKNAVRILWGRERGARAMGAQRLLQELVEDKTRWMKWEGKRVELPDSPRSTFLLAFSPDRTLLASTHVNHNIYITEVKTGKCVHSLIGHRRTPWCVTFHPTISGLIASGCLDGEVRIWDLHGGSESWFTDSNNAIASLAFHPTAQLLLIATANEIHFWDWSRREPFAVVKTASEMERVRLVRFDPLGHYLLTAIVNPSNSNIANTTYRLQWWDFTKFDLPEISNASVNVLVQNCKIYNDASCDISADGQLLAAFIPSSQRGFPDEGILAVYSLAPHNLGEMLYTKRFGPNAISVSLSPMGRYVMVGLASRRILLHPSTEHMVAQVFRLQQAHGGETSMRRVFNVLYPMPADQRRHVSINSARWLPEPGLGLAYGTNKGDLVICRPEALNSG
Regarding B1, the binding result was “binds”.

B2: MBP-AMBRA1^WD40 H75A/R96A (domain or fragment, human, UniProt Q9C0C7 1-204, looked up)
chain: MKVVPEKNAVRILWGRERGARAMGAQRLLQELVEDKTRWMKWEGKRVELPDSPRSTFLLAFSPDRTLLASTHVNANIYITEVKTGKCVHSLIGHRATPWCVTFHPTISGLIASGCLDGEVRIWDLHGGSESWFTDSNNAIASLAFHPTAQLLLIATANEIHFWDWSRREPFAVVKTASEMERVRLVRFDPLGHYLLTAIVNPSNSNIANTTYRLQWWDFTKFDLPEISNASVNVLVQNCKIYNDASCDISADGQLLAAFIPSSQRGFPDEGILAVYSLAPHNLGEMLYTKRFGPNAISVSLSPMGRYVMVGLASRRILLHPSTEHMVAQVFRLQQAHGGETSMRRVFNVLYPMPADQRRHVSINSARWLPEPGLGLAYGTNKGDLVICRPEALNSG
For the molecule B2, the binding result was “binds”.

B3: MBP-AMBRA1^WD40 W99R (domain or fragment, human, UniProt Q9C0C7 1-204, looked up)
chain: MKVVPEKNAVRILWGRERGARAMGAQRLLQELVEDKTRWMKWEGKRVELPDSPRSTFLLAFSPDRTLLASTHVNHNIYITEVKTGKCVHSLIGHRRTPRCVTFHPTISGLIASGCLDGEVRIWDLHGGSESWFTDSNNAIASLAFHPTAQLLLIATANEIHFWDWSRREPFAVVKTASEMERVRLVRFDPLGHYLLTAIVNPSNSNIANTTYRLQWWDFTKFDLPEISNASVNVLVQNCKIYNDASCDISADGQLLAAFIPSSQRGFPDEGILAVYSLAPHNLGEMLYTKRFGPNAISVSLSPMGRYVMVGLASRRILLHPSTEHMVAQVFRLQQAHGGETSMRRVFNVLYPMPADQRRHVSINSARWLPEPGLGLAYGTNKGDLVICRPEALNSG
In the case of B3, the binding result is recorded as “binds”.

B4: MBP-AMBRA1^WD40 F57A (domain or fragment, human, UniProt Q9C0C7 1-204, looked up)
chain: MKVVPEKNAVRILWGRERGARAMGAQRLLQELVEDKTRWMKWEGKRVELPDSPRSTALLAFSPDRTLLASTHVNHNIYITEVKTGKCVHSLIGHRRTPWCVTFHPTISGLIASGCLDGEVRIWDLHGGSESWFTDSNNAIASLAFHPTAQLLLIATANEIHFWDWSRREPFAVVKTASEMERVRLVRFDPLGHYLLTAIVNPSNSNIANTTYRLQWWDFTKFDLPEISNASVNVLVQNCKIYNDASCDISADGQLLAAFIPSSQRGFPDEGILAVYSLAPHNLGEMLYTKRFGPNAISVSLSPMGRYVMVGLASRRILLHPSTEHMVAQVFRLQQAHGGETSMRRVFNVLYPMPADQRRHVSINSARWLPEPGLGLAYGTNKGDLVICRPEALNSG
Take B4: the binding result is “binds”.
